This is an account of results in US5118793A, “Modified heparin cofactor II” (Washington University, priority 1991, dated 1992).

Test [1] deals with thrombin. As to the kind of experiment: Inhibition of thrombin by rHCII, chromogenic substrate Chromozym TH, second-order rate constants. The class given is biochemical, human. Conditions: for Increase in the rate constant for thrombin inhibition produced by dermatan sulfate: dermatan sulfate versus no GAG; for Increase in the rate constant for thrombin inhibition produced by heparin: heparin versus no GAG. How it is done: (§1) Inhibition of proteases by rHCII--Protease inhibition by rHCII was determined by incubating 90 μl of the partially purified rHCII (or the corresponding heparin-Sepharose fractions of a control lysate from cells transformed with pMON-5840) with 5 μl of the protease and 5 μl of either glycosaminoglycan or water in a disposable polystyrene cuvette at room temperature. Final concentrations of the proteases were as follows: thrombin, 15 nM; chymotrypsin, 21 nM; factor Xa, 16 nM; and kallikrein, 10 nM. After a specified period of time from 5 seconds (s) to 150 min, 300-500 μl of the appropriate chromogenic substrate was added, and the absorbance at 405 nm was recorded continuously for 100 s. The rate of change of absorbance was proportional to the concentration of active protease remaining in the incubation. The amounts added and concentrations of each substrate were as follows: Chromozym TH (thrombin), 500 μl, 0.1 mM; N-succinyl-Ala-Ala-Pro-Phe-p-nitroanilde (chymotrypsin), 300 μl, 0.5 mM; Spectrozyme FXa (factor Xa), 400 μl, 0.125 mM; and S-2302 (kallikrein), 300 μl, 0.4 mM.
Protease inhibition by rHCII in the absence of a glycosaminoglycan--The time courses of inhibition of thrombin, factor Xa, kallikrein, and chymotrypsin by native rHCII(Leu444 →Arg) in the absence of a glycosaminoglycan are indicated in FIG. 3. The incubations were performed under pseudo-first-order conditions, such that the initial concentration of rHCII was greater than the concentration of protease. The pseudo-first-order rate constants (k1) for protease inhibition were determined by fitting the data to the following equation: k1 t=1n([P]0 /[P]t), in which [P]0 =initial prolease activity and [P]t =protease activity at time=t. The second-order rate constants (k2) were then calculated by dividing k by the initial rHCII concentration. It was observed that rHCII(Leu444 →Arg) inhibits thrombin almost 100 times more rapidly than native rHCII in the absence of a glycosaminoglycan Furthermore, rHCII(Leu444 →Arg) inhibits factor Xa and kallikrein, while inhibition of these proteases by native rHCII is undetectable.
Inhibition of thrombin by rHCII in the presence dermatan sulfate or heparin--The time course of inhibition of thrombin was determined in the presence of various concentrations of dermatan sulfate or heparin.

A further test deals with chymotrypsin. The test is described as follows: Inhibition of chymotrypsin by rHCII, chromogenic substrate assay. The class given is biochemical, human. How it is done:
as §1, with “The amounts added and concentrations of each substrate were as follows: Chromozym TH (thrombin), 500 μl, 0.1 mM; N-succinyl-Ala-Ala-Pro-Phe-p-nitroanilde (chymotrypsin), 300 μl, 0.5 mM; Spectrozyme FXa (factor Xa), 400 μl, 0.125 mM; and S-2302 (kallikrein), 300 μl, 0.4 mM.” left out
Protease inhibition by rHCII in the absence of a glycosaminoglycan--The time courses of inhibition of thrombin, factor Xa, kallikrein, and chymotrypsin by native rHCII(Leu444 →Arg) in the absence of a glycosaminoglycan are indicated in FIG. 3. […] The pseudo-first-order rate constants (k1) for protease inhibition were determined by fitting the data to the following equation: k1 t=1n([P]0 /[P]t), in which [P]0 =initial prolease activity and [P]t =protease activity at time=t. The second-order rate constants (k2) were then calculated by dividing k by the initial rHCII concentration. […]

Test [2] deals with thrombin. Conditions: cited from earlier work.

Changes are numbered by the printed parent chain.

B1: native rHCII: recombinant full-length heparin cofactor II expressed in E. coli; amino acid sequence identical to HCII purified from human plasma (protein, UniProt P05546 20-499, looked up)
Heparin cofactor 2: GSKGPLDQLEKGGETAQSADPQWEQLNNKNLSMPLLPADFHKENTVTNDWIPEGEEDDDYLDLEKIFSEDDDYIDIVDSLSVSPTDSDVSAGNILQLFHGKSRIQRLNILNAKFAFNLYRVLKDQVNTFDNIFIAPVGISTAMGMISLGLKGETHEQVHSILHFKDFVNASSKYEITTIHNLFRKLTHRLFRRNFGYTLRSVNDLYIQKQFPILLDFKTKVREYYFAEAQIADFSDPAFISKTNNHIMKLTKGLIKDALENIDPATQMMILNCIYFKGSWVNKFPVEMTHNHNFRLNEREVVKVSMMQTKGNFLAANDQELDCDILQLEYVGGISMLIVVPHKMSGMKTLEAQLTPRVVERWQKSMTNRTREVLLPKFKLEKNYNLVESLKLMGIRMLFDKNGNMAGISDQRIAIDLFKHQGTITVNEEGTQATTVTTVGFMPLSTQVRFTVDRPFLFLIYEHRTSCLLFMGRVANPSRS
modifications: recombinant, E. coli
As for B1, in the test with thrombin [1], the “Increase in the rate constant for thrombin inhibition produced by dermatan sulfate” value is about 3500 fold and the “Increase in the rate constant for thrombin inhibition produced by heparin” value is listed as “about 40 fold”. Moreover, the “Effect of dermatan sulfate on the rate of inhibition of chymotrypsin” value in the test on chymotrypsin is “does not significantly increase”.

B2: rHCII(Leu444 →Arg): heparin cofactor II in which the leucine residue at position 444 is replaced by arginine; recombinant, expressed in E. coli (protein, UniProt P05546 20-499, looked up, variant L444R)
Heparin cofactor 2: B1 Heparin cofactor 2 with L444R
modifications: recombinant, E. coli-expressed
notes: heparin cofactor II in which the leucine residue at position 444 is replaced by arginine; recombinant, expressed in E. coli
On to B2, for which, in the test with thrombin [1], the “Increase in the rate constant for thrombin inhibition produced by dermatan sulfate” value is given as “much smaller effect” and the “Increase in the rate constant for thrombin inhibition produced by heparin” value was “minimal effect”.

B3: HCII: heparin cofactor II, a 65,600 dalton plasma glycoprotein, serpin that inhibits thrombin (protein, UniProt P05546 20-499, looked up)
Heparin cofactor 2: B1 Heparin cofactor 2
Turning to B3, the “Increase of the rate of thrombin inhibition by heparin and dermatan sulfate” value in the test on thrombin [2] is listed as ~ 1000 fold.
